Our source for the Kd values is article PMC10361524.

In assay [1] the target is T1, IL-24B4 displayed on the yeast surface (version with an N-terminal linker of 17 amino acids, fused to a fluorescent protein) (human). As to the kind of experiment: flow cytometry on cells; yeast surface display of IL-24B4 (suspension enriched with 0.5% IL-24S yeast); CF640R-labelled IL-20R2D variants at 500, 100, 20, 4 and 0.1 nM in PBSB with 10 nM bilirubin, overnight at 4°C; apparent Kd (affinity and avidity); not irradiated.
T1 sequence (main, as listed by the source): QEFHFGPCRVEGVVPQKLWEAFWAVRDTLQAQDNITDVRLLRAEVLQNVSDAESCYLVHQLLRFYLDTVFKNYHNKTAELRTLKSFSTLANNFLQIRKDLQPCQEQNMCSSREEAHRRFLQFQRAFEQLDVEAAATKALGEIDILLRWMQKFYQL

Assay [2] concerns the target T1, IL-24B4 displayed on the yeast surface …. The experiment in a line: flow cytometry on cells; as a3, but the labelled IL-20R2D variant UV irradiated (365 nm); apparent Kd.
For assay [3], the target named is IL-20R2D (human), Q6UXL0. As to the kind of experiment: MST; as a1, but the IL-20R2D variant irradiated at 365 nm (100 mW, 5 min) before use.
Assay [4] addresses IL-20R2D Y70NBY + UV (human), Q6UXL0. The description is as above.
Assay [5] concerns the target T2, IL-20R2D Y70NBY (human), Q6UXL0.
T2 chain: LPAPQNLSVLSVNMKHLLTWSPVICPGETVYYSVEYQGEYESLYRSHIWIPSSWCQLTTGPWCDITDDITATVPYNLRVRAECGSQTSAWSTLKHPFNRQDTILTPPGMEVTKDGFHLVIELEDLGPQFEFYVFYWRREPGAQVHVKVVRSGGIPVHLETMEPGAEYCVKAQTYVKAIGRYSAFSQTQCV
As to the kind of experiment: MST; IL-20R2D variants labelled with RED-tris-NTA dye on the His tag, held constant at 50 nM; unlabelled IL-24B4 titrated; 50 mM Tris pH 8, 100 mM NaCl, 0.02% pluronic F127; not irradiated.

The target of assay [6] is IL-20R2D (human), Q6UXL0. Described as above.
The target in assay [7] is T3, IL-20R2D Y70NBY/Y74NBY (human), Q6UXL0.
T3 chain: T2 chain
The description is as above.

Assay [8] has as its target T4, IL-20R2D Y74NBY (human), Q6UXL0.
T4 chain: T2 chain
Described as above.

For assay [9], the target named is IL-20R2D (human), Q6UXL0. Described as above. This is another data set of the same source.

B1: IL-20R2D Y70NBY, Q6UXL0 30-233 (receptor)
chain: T2 chain
modifications: here or on the partner: ortho-nitrobenzyl-tyrosine (NBY) at 70
Turning to B1, the Kd in assay [1] was 2000 nM.

B2: IL-20R2D, Q6UXL0 30-233 (receptor)
chain: T2 chain
modifications: here or on the partner: designed disulfide Cys59-Cys117 (UniProt numbering)
On to B2, for which the Kd in assay [2] amounted to 9.6 nM; in assay [1] it was 5 nM.

B3: IL-20R2D Y70NBY + UV, Q6UXL0 30-233 (receptor)
chain: T2 chain
modifications: here or on the partner: UV-decaged, Tyr70 restored to canonical tyrosine; designed disulfide Cys59-Cys117
Regarding B3, the Kd in assay [2] is 7.6 nM.

B4: IL-24B4 (SUMO-cleaved, C-terminal Strep-tag), Q13007 52-206 (ligand)
chain: FHFGPCRVEGVVPQELWEAFWAVRDTLQAQDNITDVRLLRAEVLQNVSDAESCYLVHQLLRFYLDTVFKNYHNKTAELRTLKSFSTLANNFVLIVSDLQPCQEQNMCSSREEAHRRFLQFQRAFEQLDVEAAATKALGEIDILLTWMQKFYQL
modifications: here or on the partner: designed disulfide Cys59-Cys117 (UniProt numbering)
Consider B4, for which the Kd is 3700 nM in assay [3]; 3300 nM in assay [4]; above 94000 nM in [5]; 630 nM in assay [6]; 570 nM in assay [7]; 430 nM in [8]. The Kd in assay [9] is 500 nM.
